Data as given in patent US12624096B2, “Anti-tau antibodies and methods of use thereof” (GTInvent Limited, priority 2020, dated 2026).
“Also recorded” adds a separate entry of the source. Values belong to the molecule of their own block, whether it stands above or below them.

What was measured:
dGAE aggregates [1] = biological target: T1, dGAE aggregates (Homo sapiens, UniProt P10636); experiment: Epitope occlusion sandwich ELISA (423 mAb capture) of dGAE aggregated with/without LMTM; format: binding; conditions: LMTM 1:5 ratio
T1 sequence (P10636 614-708): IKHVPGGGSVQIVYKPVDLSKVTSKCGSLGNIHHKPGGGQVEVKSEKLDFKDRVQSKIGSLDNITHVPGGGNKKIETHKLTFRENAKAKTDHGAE
Description: During dGAE aggregation in vitro, scAb binding regions on dGA/dGAE are ‘hidden’ or ‘occluded’ which leads to a loss of immunoreactivity in aggregation samples. Here we have shown the occlusion of binding regions in aggregated dGAE samples and the recovery of immunoreactivity in the presence of LMTM, a tau-aggregation inhibitor. For preparing the aggregates, 10 μl 10 mM DTT was added to 1000 μl 100 μM dGAE and agitated with/without LMTM (1:5 ratio) at 700 rpm for 24 h at 37° C. […] The pellet was then resuspended in half the original volume for further experiments. […] Doubling dilutions of dGAE aggregate ‘total’, ‘supernatant’ and ‘pellet’ samples at 10 μg/ml starting concentration were added to designated wells in doubling dilutions in 1×PBS, dGAE monomer (non-aggregated) was included as assay control. All double dilutions were done in final volumes of 100 μl. This was left to incubate on lab bench for 1 h followed by the addition of test scAbs at 10 μg/ml. Anti-HuCk HRP labelled secondary antibody was added as described previously and ELISA data generated is represented using the graph below.

plasma tau [2] = experiment: Plasma tau (Simoa) in L66+/- mice treated with LMTM; format: in vivo, mouse
Description: The effect of the tau aggregation inhibitor LMTM on the levels of plasma tau in a L66^+/− mouse line was investigated with two assays, both utilising the 3-step Simoa® protocols described above. Using the human specific NT1 assay (BT2 capture with Tau12 detection), low levels of tau (0.41±0.09 pg/ml) were detected in the plasma of 5-month-old L66^+/− that were treated with vehicle control solution (FIG. 50A). At the same time, an increase in tau levels was measured in the plasma of L66^+/− mice that had received an oral administration of LMTM (15 mg/kg) during the time period (1.28±0.11 pg/ml).
This hypothesis was supported by our core-proline antibody assay in which S1D12 antibody coated capture beads and BT2 detector was used (FIG. 50B). This assay detects both human and mouse tau which explains the higher levels of tau detected.

dGAE = dGAE (Homo sapiens, UniProt P10636); experiment: Thioflavin T dGAE aggregation inhibition assay; format: biochemical; conditions: 10 μM test protein; 100 μM dGAE, 10 mM DTT, 24 h
Sequence of dGAE (P10636 614-708): as above
Description: By incubating 100 μM dGAE and 10 mM DTT at 37° C., on a thermomixer at 700 rpm for 24 hours, “pathology mimicking” aggregates which have the morphology of paired helical filaments are formed. This aggregation can be quantified by adding a final concentration of 12.5 μM Thioflavin T (fluorescent dye) which binds to fibril-like β-sheets. Fluorescence was measured with a constant emission wavelength of 480 nm and a scanning excitation wavelength of 350-470 nm using a Varian Cary Eclipse fluorescence spectrophotometer. Maximal fluorescence measurements were used as an indicator of dGAE aggregation (approximately 450 nm excitation). The assay was optimised using a range of S1D12 scAb concentrations (0.04 to 25 µM) and tested for levels of aggregation inhibition as shown in FIG. 35.
Based on FIG. 35, 10 μM scAb was deemed an adequate concentration to compare and rank individual scAb-mediated dGAE aggregation inhibition events. […] A similar inhibition (40%) was seen using 10 μM bovine serum albumin as a negative control (data not shown).

dGAE aggregates [3] = biological target: T1, dGAE aggregates; experiment: Sandwich ELISA on SDS/Triton X-100 treated dGAE aggregates; format: binding; conditions: S1D12 mAb capture, S1G2 scAb detection; SDS + Triton X-100 treated
Description: For aggregation, 1000 μL 100 μM dGAE+10 μL 10 mM DTT was added to a ‘LoBind’ microfuge tubes and agitated at 700 RPM/37° C., for 24 hours. Resulting sample centrifuged at 17,000×g/4° C., for 60 min and supernatant discarded to remove left over monomer. Pellet resuspended in half the original volume for future experiments and hereafter referred to as ‘aggregates’. 1 μl of aggregates was added to 1 ml of PBS and SDS was added to a final concentration of 1% (w/v). This was left to incubate on lab bench for 1 h with gentle agitation every 15 minutes. In order to neutralise the SDS effect on ELISA, Triton X-100 added to a final concentration of 3% (v/v) and mixed gently by pipetting to prevent any bubble formation. […] Similarly aggregates treated with only SDS or Triton X-100, untreated aggregates, dGAE monomers treated with only SDS or SDS+Titon X-100 were also added to designated wells as controls. All samples were then double diluted across the plate in final volumes of 100 μl. The final column was left with no protein to act as a blank. This was allowed to stand at room temperature for 1 hour followed by the addition of detection scAb-S1G2 at 10 μg/ml. Anti-HuCk HRP labelled secondary antibody was added as described previously and ELISA data generated was represented using the graph below. In addition, limits of detection (LoD) of various core binding antibody pairing for SDS Triton X-100 treated dGAE aggregates were calculated using the above describe ELISA method and substituting capture mAbs and detection scAbs as shown in Table 30.

aggregated dGAE = aggregated dGAE (Homo sapiens, UniProt P10636); experiment: Capture ELISA ranking of mAbs on dGAE aggregates; format: binding; conditions: 1 μg/ml capture mAb, 800 nM aggregated dGAE
Sequence of aggregated dGAE (P10636 614-708): as above
Description: The aggregation cascade of natively unfolded tau into insoluble filaments is a defining pathological feature of AD. Therefore, it is logical to target aggregated tau filaments for both therapeutic and diagnostic purposes. The following experiment was performed to assess the ability of our dGA mAb panel to bind aggregated dGAE using a capture ELISA method. Aggregates were prepared by incubating 100 μM dGAE and 10 mM dTT for 24 h at 37° C. with shaking at 700 RPM. The following day, dGAE aggregates were centrifuged at 17,000×g for 20 min and the supernatant was removed. The remaining pellet was washed with 10 mM phosphate buffer and centrifuged as above. Washing was repeated a further two times to remove any remaining dGAE monomer. The dGAE pellet was resuspended in 100 μl of 10 mM phosphate buffer. (Using a separate capture ELISA based quantification, we have worked out the efficiency of our dGAE aggregation as 80%)
For assessing the mAb panel for aggregate binding, designated rows of a maxisorp plate were coated with 1 μg/ml of each of the capture mAbs (S1D12, S1G2, CA4, NS2A1, CE2, E2E8 and CB7) and blocked as before. Following washing, 800 nM aggregated dGAE was added to the designated wells, double diluted across the plate and incubated for 1 h at RT. The plate was washed again and 1 μg/ml S1G2 scAb was added as detection antibody and incubated for 1 h at RT. To the row where S1G2 mAb was used for capture, […] s1D12 scAb was added as […] instead of S1G2. The assay was developed using HRP labelled HuCK as described previously.

[4] = Pharmacokinetic study of S1D12 mAb, single dose, plasma and brain (dGAE ligand binding ELISA); format: in vivo, mouse; conditions: single dose 30 mg/kg i.p., NMRI mice
Description: For the PK study, a total of 42 female NMRI mice (Swiss-type mouse, Naval Medical Research Institute) aged 6 months were allocated into six groups according to sample collection time (Table 30 for group size). Animals were injected intraperitoneally with S1D12 (30 mg/kg) and sacrificed 24-, 48-, 72-hours and 7-, 14- and 31-days after injection to collect blood and brain samples. A control group was also included in which animals were sacrificed to collect blood and brain, but no test item was administered.
Blood samples were centrifuged to obtain plasma at 2000×g for 5 min at 6° C., and samples were stored at −20° C. After blood collection, each mouse was perfused with heparinized saline for 2-3 minutes and the entire brain removed rapidly and snap frozen in liquid nitrogen and stored at −80° C.
Briefly, dGAE (1 μg/mL) was used to coat ELISA plates and blocked with 2% Marvel. […] Following washing, HRP-conjugated anti-mouse IgG as detector was added, and the assay developed using TMB solution as normal. The absorbance at 450 nm was read using a Clariostar plate reader (BMG Labtech) and MARS Clariostar software used to calculate S1D12 concentration from a standard curve.
Average values from each group (representing a time point) was plotted (FIG. 10) and the in vivo half-life, Cmax and Tmax calculated by performing a non-compartmental analysis of the plasma data using the PKSolver2.0 software (FIG. 51, Table 31). […] Here a higher coating concertation of dGAE at 10 μg/ml was used to compete off antibody binding to tau present in the brain.

[5] = Six-week repeat-dose study, S1D12 mAb in plasma and brain; format: in vivo, mouse
Description: (§1) In a six-week repeat-dose study, a total of 12 WT, 12 Line 1 (L1) and 12 Line 66 homozygotes (L66+/*) female mice aged 2-months at the beginning of the study were used (Table 32 for group size). Mice in each genotype were injected intraperitoneally (i.p.) with either vehicle or S1D12 (30 mg/kg), once per week, for six consecutive weeks.
Mice treated with S1D12 were culled seven days after the last dosing whereas vehicle-treated animals were sacrificed the following day, i.e. 8 days post-treatment. Mice were anaesthetized using an overdose of sodium pentobarbital administered intraperitoneally for blood collection. Blood was transferred to plastic vials containing lithium heparin anticoagulant, centrifuged to obtain the plasma and the entire brain was removed as described previously. Plasma and brain samples (stored at −20° C., and −80° C., respectively) were subjected to further biochemical analysis.

human tau = biological target: T2, human tau (Homo sapiens, UniProt P10636, G652D/P618S); experiment: Western blot ratio of human to mouse tau in L66+/+ brain after 6-week S1D12 mAb therapy; format: in vivo; conditions: L66+/+ mice, 30 mg/kg i.p. weekly for 6 weeks vs vehicle, S1G2 detection
T2 construct: sample A with 5 nM full length human tau (hT40); from tissue; host or cells: brain homogenate of L66+/+ transgenic mice expressing the human tau transgene
T2 sequence (P10636 1-441 isoform P10636-8 P301S/G335D): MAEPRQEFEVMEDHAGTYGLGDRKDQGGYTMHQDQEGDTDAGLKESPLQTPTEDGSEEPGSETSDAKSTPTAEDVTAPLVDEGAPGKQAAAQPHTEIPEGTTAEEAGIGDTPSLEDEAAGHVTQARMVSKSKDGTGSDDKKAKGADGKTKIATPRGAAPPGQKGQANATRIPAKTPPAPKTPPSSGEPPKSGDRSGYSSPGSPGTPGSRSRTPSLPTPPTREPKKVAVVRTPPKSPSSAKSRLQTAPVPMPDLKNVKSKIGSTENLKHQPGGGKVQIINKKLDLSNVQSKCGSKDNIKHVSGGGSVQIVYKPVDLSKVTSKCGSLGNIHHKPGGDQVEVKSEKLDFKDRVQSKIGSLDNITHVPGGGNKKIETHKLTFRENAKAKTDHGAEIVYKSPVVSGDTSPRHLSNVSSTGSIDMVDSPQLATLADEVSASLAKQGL
Description: as §1
A hemisphere of each Line 66^+/+ mouse brain was suspended in RIPA buffer and homogenised. Samples were left on ice for 1 hour and subsequently centrifuged for 10 minutes at 10,000×g at 4° C. The supernatant was collected, and the total protein was quantified using a BCA Protein Assay Kit. Brain homogenate supernatant from each mouse was separated via sodium dodecyl sulphate polyacrylamide gel electrophoresis (SDS-PAGE) with MES running buffer. […] Following washing, the secondary antibody, sheep anti-mouse IgG-HRP, was added, and the membrane was washed five times with PBST and developed with Clarity Western ECL Substrate and read using a BioSpectrum Gel imaging System (UVP). Results were analysed using ImageJ-Fiji (NIH, Version 1.53) where densitometric analysis was performed and the ratio of human to mouse tau densities was calculated.

plasma tau [6] = experiment: Plasma tau (Simoa) after S1D12 immunotherapy; format: in vivo, mouse; design: plasma tau, core and proline region pairing (S1G2-BT2) / plasma tau, proline region pairing (BT2-HT7): unit not given here
Description: as §1
Three-step assays were performed and analysed as per previously described plasma screening methods in this document.

Molecule: CN(C)c1ccc2c(c1)Sc1cc(N(C)C)ccc1N2.CS(=O)(=O)O.CS(=O)(=O)O [LMTM]
effect of LMTM on dGAE aggregation and immunoreactivity (dGAE aggregates [1]): preventing the aggregation event, leading to an increased immunoreactivity
plasma tau, NT1 assay (BT2 capture with Tau12 detection) (plasma tau [2]; 5-month-old L66+/- mice, oral LMTM 15 mg/kg): 1.28 ± 0.11 pg/mL
plasma tau, core-proline assay (S1D12 capture beads, BT2 detector) (plasma tau [2]; L66+/- mice, LMTM 15 mg/kg): 142.08 ± 12.08 pg/mL

inhibition of dGAE aggregation (dGAE): 40%
Molecule: bovine serum albumin: negative control protein in thioflavin T assay [reference compound]

B1: S1D12 mAb: S1D12 reformatted as mAb, heavy chain SEQ ID NO: 445, light chain SEQ ID NO: 446 (antibody)
heavy: QVQLQESGPSLVKPSQTLSLTCTVSGFSLNNNAVGWVRQAPGKVPESLVGCSSDGTCYYNSALKSRLDITRDTSKNQISLSLSSVTTDDAAVYYCTRGHYSIYGYDYLGTIDYWGPGLLVTVSSAKTTAPSVYPLAPVCGDTTGSSVTLGCLVKGYFPEPVTLTWNSGSLSSGVHTFPAVLQSDLYTLSSSVTVTSSTWPSQSITCNVAHPASSTKVDKKIEPRGPTIKPCPPCKCPAPNLLGGPSVFIFPPKIKDVLMISLSPIVTCVVVDVSEDDPDVQISWFVNNVEVHTAQTQTHREDYNSTLRVVSALPIQHQDWMSGKEFKCKVNNKDLPAPIERTISKPKGSVRAPQVYVLPPPEEEMTKKQVTLTCMVTDFMPEDIYVEWTNNGKTELNYKNTEPVLDSDGSYFMYSKLRVEKKNWVERNSYSCSVVHEGLHNHHTTKSFSRTPGK
light: QAVLTQPSSVSGSLGQRVSITCSGSSSNVGGGNSVGWYQHLPGSGLKTIIYDTNSRPSGVPDRFSGSRSGNTATLTINSLQAEDEGDYYCVTGDSTTHDDLVGSGTRLTVLGGQPKSSPSVTLFPPSSEELETNKATLVCTITDFYPGVVTVDWKVDGTPVTQGMETTQPSKQSNNKYMASSYLTLTARAWERHSSYSCQVTHEGHTVEKSLSRADCS
modifications: S1D12 mAB Heavy Chain; S1D12 mAB Light Chain
dGAE aggregates detectable in sandwich ELISA (dGAE aggregates [3]): approximately 2 ng/ml
ability to capture aggregated dGAE (aggregated dGAE): most efficient at capturing aggregated dGAE
Tmax in the brain [4]: 48 h
Cmax ([4]; read-out: Cmax in the brain): 6.2 nM
increase in S1D12 concentration in plasma following repeat dosing ([5]; WT mice, 30 mg/kg once per week for 6 weeks vs single dose, 7 days post dose): > 3 fold
plasma S1D12 antibody crossing the blood brain barrier ([5]; WT, L1 and L66+/+ mice, 30 mg/kg weekly for 6 weeks): 0.15-0.3%
ratio of human tau to mouse tau in brain (human tau): A decrease in the ratio of human tau to mouse tau; also recorded: A decrease in the levels of human tau was observed
difference in plasma tau vs vehicle, S1G2-BT2 (plasma tau [6]; L1 and wildtype mice): not statistically significant
plasma tau, core and proline region pairing (S1G2-BT2) (plasma tau [6]; L66+/+ mice, S1D12 mAb 30 mg/kg weekly for 6 weeks): 1438±275
increase in plasma tau vs vehicle, S1G2-BT2 (plasma tau [6]; L66 mice): more than a threefold increase
plasma tau, proline region pairing (BT2-HT7) (plasma tau [6]; L66 mice, S1D12 mAb 30 mg/kg weekly for 6 weeks): 127±55
